Target: T1, Pti6 (Solanum lycopersicum (Tomato) …, UniProt O04682 1-248, limits assumed)
T1 construct: Tested as a yeast two-hybrid prey expressed from vector pJG4-5; also called prey of Pti6 (in pJG4-5)
Assay: yeast two-hybrid (LEU2 and lacZ reporters), Bicoid bait in pEG202, prey in pJG4-5
Protocol: Figure 2: FIG. 2 sets forth results of the Experiment described in Example 1 herein. Briefly, EGY48 yeast cells containing a prey of Pti4, Pti5 or Pti6 (in pJG4–5), and a bait of Pto, pto or Bicoid (in pEG202) were grown on galactose Ura⁻His⁻Trp⁻X-Gal medium. The plates were incubated at 30° C. for three days and photographed. Four independent, representative colonies are shown for each bait/prey combination.
Yeast strains carrying the Pto bait and a prey of Pti4, Pti5 or Pti6 grew in the absence of leucine, indicative of the LEU2 reporter gene activation. When grown on X-Gal plates, these yeast cells were blue as a result of the lacZ reporter gene activation. As determined by the intensity of blue color, the strength of interaction of Pto with these three preys is in the order of Pti6>Pti4>Pti5.

T1 sequence (O04682 whole entry): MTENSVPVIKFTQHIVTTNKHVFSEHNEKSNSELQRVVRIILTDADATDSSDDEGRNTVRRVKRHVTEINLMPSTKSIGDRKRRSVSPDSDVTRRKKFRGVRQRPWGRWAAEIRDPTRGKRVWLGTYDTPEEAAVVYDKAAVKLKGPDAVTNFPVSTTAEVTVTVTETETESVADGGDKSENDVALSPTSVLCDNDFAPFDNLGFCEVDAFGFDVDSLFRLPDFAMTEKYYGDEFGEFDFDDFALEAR

B1: Bicoid (other, UniProt P09081 2-160, looked up)
chain: AQPPPDQNFYHHPLPHTHTHPHPHSHPHPHSHPHPHHQHPQLQLPPQFRNPFDLLFDERTGAINYNYIRPYLPNQMPKPDVFPSEELPDSLVMRRPRRTRTTFTSSQIAELEQHFLQGRYLTAPRLADLSAKLALGTAQVKIWFKNRRRRHKIQSDQHK
notes: Control bait expressed from vector pEG202; also called arbitrary bait Bicoid (in pEG202)
binding result: no binding

— patent US6653533 (PURDUE RESEARCH FOUNDATION, dated 1997)
